These results are taken from the DeepSol protein solubility set.

This data set is described as follows: soluble on expression in E. coli; label from the status in PepcDB or PDB records.
Turning to “MSLKAVQQHAFGGPEVLSYEDAPMPVLQAGEVLVQVYAVGVNPPDSYLRDGYQQLPPEWRPEVRFPLILGTDLSGVVVARADDVREVAVGDEVYAMARFPEGAAGGSRAYAEYVSVPVSDLARKPLTLSHQQAAAVPMSLLTAWQFMIDPGHEVANPLQPGPHRPVPLAGKRVLVNGAAGGVGHFAVQLAKWQGAEVIAVAAGCHEAFLRQLGADSVIDYTTTAVEETVRDLDLVIDAPGGPASGRFLRTLRPGGALYPIFPLGFAGAEEARQRGVTVSTTQVRSSGAQLARLADLLDAGVIRVAIDSVFPLAQAQMAHERAAQGHLEGKIVLSVMDSEGHHHHHH”, the “soluble on expression in E. coli” value was “soluble”.
In the case of “MKAITLLSSGLDSVAALAIAAESLEIEMAITFDYGQRAGQREMEYSEKVCEHFGIEQRIIKLDWLGEITHTSLVNRDEEVPSLSFEDIDENSPSMITEYSAKAVWVPNRNGVMLNIAGSFAESRGCDYIVVGFNGEEAGTFPDNSRDYIQAVDNAFSYSTQNGVKVLAPLAEMGKTEIVKKALEAEAPLEYSWSCYHGGEIPCGKCESCVRRARAFKNIGIKDPLLERLGI” it was “not soluble”; in that of “MSYFKNAFNQKSLIDDSSVYLEPCSSSNFIELKRMHYNEENTKKTWDIIKSLDSVAVLLYEKESDCFVIVKQFRPAIYARRFHFKCDQDQTIDGYTYELCAGLVDKANKSLEEIACEEALEECGYQISPKNLETIGQFYSATGLSGSLQTLYYAEVHKNLKVSKGGGIDTERIEVLFLERSKALDFIMDFQYAKTTGLSLAILWHLKKFKNV”, “not soluble”; in that of “MAHHHHHHMPAVKQHLTGKASAAMRPTPSDAGAVLEPLTVRPSRVTTTTDHLTTSSAISTISVDTIRECGSAEDAYEAGKELGGVGPVFTGVAVPAEHPVAAAMPADAAELRHEEELKVIMCRYRPQSTEN”, “soluble”.
In the case of “MPSRYTNILVPVDSSDAAQAAFTEAVNIAQRHQANLTALYVVDDSAYHTPALDPVLSELLDAEAAHAKDAMRQRQQFVATTSAPNLKTEISYGIPKHTIEDYAKQHPEIDLIVLGATGTNSPHRVAVGSTTSYVVDHAPCNVIVIR” it was “not soluble”; in that of “MAESVFAERIVQNLLDTDFYKLTMMQAVLHNYPNAEVEWEFRCRNAEDLRPYLAEIRYQIERLAEVEVTADQLAFLERIPFMKPDFIRFLSLFRFNLRYVHTGIEDGQLAIRLRGPWLHVILFEVPLLAIVSEVRNRYRYREVVLEQVGEQLYRKLDWLSAQASSEELAEFQVADFGTRRRFSYRTQEEVVHILKRDFPGRFVGTSNVHLAREYDLKPIGTMAHEWLMAHQQLGPRLVDSQQAALDCWVREYRGQLGIALTDCITMDAFLDDFDLYFAKLFDGLRHDSGDPLAWAEKAIAHYRRLGIDPLSKTLVFSDGLDMPKALQLFRALRGKINVSFGIGTNLTCDIPGVEPMNIVLKMTACNGHPVAKISDAPGKTQCRDENFVAYLRHVFNVPA”, “not soluble”; in that of “MHHHHHHSSGRENLYFQGSVFGVPLTVNVQRTGQPLPQSIQQAMRYLRNHCLDQVGLFRKSGVKSRIQALRQMNEGAIDCVNYEGQSAYDVADMLKQYFRDLPEPLMTNKLSETFLQIYQYVPKDQRLQAIKAAIMLLPDENREVLQTLLYFLSDVTAAVKENQMTPTNLAVCLAPSLFHLNTLKRENSSPRVMQRKQSLGKPDQKDLNENLAATQGLAHMIAECKKL”, “soluble”.
The result for “MIITVTAFKGGVGKTTSSIHLAAYLNNKAPTILIDGDLNRSALLWASHEKLDFPVVDEREGLKAARNYEHIVVDTPARPEIEEIRSLARGCDLMILPTSPDALSMGALQANIQTFKQLNIPNFRILMTIVPPKPSTAGTEAKEYLQSLGLPVFKRMITRYAAFPKAALEGCVVRDVKGDRYAGAGWNDYKTVGGEIYGLEHHHHHH” reads “soluble”; that for “MATAAETSASEPEAESKAGPKADGEEDEVKAARTRRKVLSRAVAAATYKTMGPAWDQQEEGVSESDGDEYAMASSAESSPGEYEWEYDEEEEKNQLEIERLEEQLSINVYDYNCHVDLIRLLRLEGELTKVRMARQKMSEIFPLTEELWLEWLHDEISMAQDGLDREHVYDLFEKAVKDYICPNIWLEYGQYSVGGIGQKGGLEKVRSVFERALSSVGLHMTKGLALWEAYREFESAIVEAARLEKVHSLFRRQLAIPLYDMEATFAEYEEWSEDPIPESVIQNYNKALQQLEKYKPYEEALLQAEAPRLAEYQAYIDFEMKIGDPARIQLIFERALVENCLVPDLWIRYSQYLDRQLKVKDLVLSVHNRAIRNCPWTVALWSRYLLAMERHGVDHQVISVTFEKALNAGFIQATDYVEIWQAYLDYLRRRVDFKQDSSKELEELRAAFTRALEYLKQEVEERFNESGDPSCVIMQNWARIEARLCNNMQKARELWDSIMTRGNAKYANMWLEYYNLERAHGDTQHCRKALHRAVQCTSDYPEHVCEVLLTMERTEGSLEDWDIAVQKTETRLARVNEQRMKAAEKEAALVQQEEEKAEQRKRARAEKKALKKKKKIRGPEKRGADEDDEKEWGDDEEEQPSKRRRVENSIPAAGETQNVEVAAGPAGKCAAVDVEPPSKQKEKAASLKRDMPKVLHDSSKDSITVFVSNLPYSMQEPDTKLRPLFEACGEVVQIRPIFSNRGDFRGYCYVEFKEEKSALQALEMDRKSVEGRPMFVSPCVDKSKNPDFKVFRYSTSLEKHKLFISGLPFSCTKEELEEICKAHGTVKDLRLVTNRAGKPKGLAYVEYENESQASQAVMKMDGMTIKENIIKVAISNPPQRKVPEKPETRKAPGGPMLLPQTYGARGKGRTQLSLLPRALQRPSAAAPQAENGPAAAPAVAAPAATEAPKMSNADFAKLFLRK”, “soluble”.
For “MSRDRPNKIKLPHRPGYTTYLQTGDLTSTDGEEGVYSLKLITGYTREEPEILDDVLDPSGGSSSSQRSNDPLLPASTNHPEIFDDVLDPSGGSSSSQRSNDPLLPASTFKLSCVDCKKQYNVSKSMKSQARKRKIRQDMEAEDDMLDGTGLHRMALVNVNTTMPQEAKALEELSKKLVISATLTGYDSVPINTPSKSPQVLYFQVKTHAEFDLVQEKMDKNFISQLEIESLVKSNEPFLFPYGRRRHVFTSILLATYLSLCSDEANNIDDWKDLLRNNAIIKKAVEHSDTMQKMKKYLSVDGRTMLNFYKETL”, the “soluble on expression in E. coli” value is listed as “not soluble”.
In the case of “MSEANIIHSRYGLRCEKLDKPLNLGWGLDNSAVLHCPGELPTGWLCDALDQIFIAAPQLSAVALPWAEWREEPQALTLFGQVKSDIIHRTAFWQLPLWLSSPANRASGEMVFDAEREIYFPQRPPRPQGEVYRRYDPRIRRMLSFRIADPVSDAERFTRWMNDPRVEYFWEQSGSLEVQTAYLERQLTGKHAFPLIGCFDDRPFSYFEIYWAAEDRIGRHYSWQPFDRGLHLLVGEQQWRGAHYVQSWLRGLTHYLLLDEPRTQRTVLEPRTDNQRLFRHLEPAGYRTIKEFDFPHKRSRMVMADRHHFFTEVGL”, the “soluble on expression in E. coli” value is recorded as “not soluble”.
Take “MSNHQVALQFEDGVTRFICIAQGETLSDAAYRQQINIPMDCREGECGTCRAFCESGNYDMPEDNYIEDALTPEEAQQGYVLACQCRPTSDAVFQIQASSEVCKTKIHHFEGTLARVENLSDSTITFDIQLDDGQPDIHFLAGQYVNVTLPGTTETRSYSFSSQPGNRLTGFVVRNVPQGKMSEYLSVQAKAGDKMSFTGPFGSFYLRDVKRPVLMLAGGTGIAPFLSMLQVLEQKGSEHPVRLVFGVTQDCDLVALEQLDALQQKLPWFEYRTVVAHAESQHERKGYVTGHIEYDWLNGGEVDVYLCGPVPMVEAVRSWLDTQGIQPANFLFEKFSAN”: the “soluble on expression in E. coli” value is reported as “soluble”.
In the case of “MGSDKIHHHHHHMLAYGYQKFGGPTVFEELPQSQLIPTDNQLLIKTLAVNLTEEDRLERLGTIQSVALPHIPGHDVIGKIIQVGAAVTDLDVGTVVAARTNHTYADQVCLDSDLAVTMPTNLDPVTAVSLVTPGIVAYKTVRYFADIQADQTVIVKGAGSPVGLLIIQLAKRLGAHVIAIASDRYANLIATLGVDQFVDYQHQNPVHVLADRGDVVINVAIDGVGGKDDLAMAKFDATIASFARHLPATSKSIRFQAIQPTEVISDQAALQLLFKLLDTGQLTTTINEQLPFNLTGFIQGHQRLDEPHVGQVVVAR”, the “soluble on expression in E. coli” value is given as “not soluble”.
“MMEDGNYIINPWVYTDRMGMYRILLEETAMYFAKYGPENEQNLLWGLPLQFGWQYQSGRLADPTGMTDCGNELNESLCVSVDSWWADINYYLSVIPFLAAVDSGITGISPNQITILPPPKDQMRFCYNVSDCQSAVPGTMNRWRDFFQYMQLNSSDFDGLLNYLWEAHASSLDYPTSAFGDRYNFYSEKEANFEENWAIAVNYLAAARLPTTQNRTYSFQRGLPPRVLVDTDIAPFIPDFTPLQNEVLVSLKLLGDTDRNSGSLSLTLWENLMSTKLARTLFLKAFEEFLVTSS”: the “soluble on expression in E. coli” value is listed as “soluble”.
With “MAKATYACVECGYRTPKPLGRCPSCGSWESFQEVAPAPASRRAKPSPLPLLALSQVDEAEERRFSSGLSEVDRVLGGGFVTGEVVLLGGEPGVGKSTLLLEMAKRMPQRVYYVAGEESPAQIKLRAQRLGVKDLLLVRETRLEPLLALLEEDPPEVLFVDSVQTLEAGGSPGSLVAVREATSALVRFAKESGAAVVLVGHVTKEGVVAGPKSVEHAVDATLYLETAGPYRVLRSAKNRFGPVGEIGVFRMEEAGLLEVENPSEAFLKERPLGVPGSAVALALAGERALALEVQALAAKTPFPAPRRVVQGLDSRRVDVVLAVLERRLGLPLANLDIYVNLAGGLKVQDPGLDLAVALAVYSAVVGRPLPADLALVGEVGLAGEVRRVAGLERRLREGERAGFGRFLHPGNLKRLQEAVEAYLALEHHHHHH”, the “soluble on expression in E. coli” value is listed as “not soluble”.
For the sequence “MKRMLFIFVSSFLLIALAACAQGKETKSELDYDQTKKMIVDILKTDQGKKAIQDVLTDEKMKQALILDETVVKKTIEDAMVSDKGQQFWEKLFKDPEFSSKFAKSMGKEQTQLMKTLLKDPEYQAGVIEIMKNPEVEKMMLQTMKSKEYRQYLQQVLTETAESPLFQAKMIDIISKGVQKAEKGGSGKKEAGGDGGSQGEKKEEQ”, the “soluble on expression in E. coli” value is on record as “not soluble”.
Turning to “MGSDKIHHHHHHMSKVFIATANAGKAHDADIFSVSACNSFTVSCSGDGYLKVWDNKLLDNENPKDKSYSHFVHKSGLHHVDVLQAIERDAFELCLVATTSFSGDLLFYRITREDETKKVIFEKLDLLDSDMKKHSFWALKWGASNDRLLSHRLVATDVKGTTYIWKFHPFADESNSLTLNWSPTLELQGTVESPMTPSQFATSVDISERGLIATGFNNGTVQISELSTLRPLYNFESQHSMINNSNSIRSVKFSPQGSLLAIAHDSNSFGCITLYETEFGERIGSLSVPTHSSQASLGEFAHSSWVMSLSFNDSGETLCSAGWDGKLRFWDVKTKERITTLNMHCDDIEIEEDILAVDEHGDSLAEPGVFDVKFLKKGWRSGMGADLNESLCCVCLDRSIRWFREAGGK”, the “soluble on expression in E. coli” value was “not soluble”.
The result for “MGSDKIHHHHHHPSLTCVMEGKDIEDWSCCPTPWTSFQSSCYFISTGMQSWTKSQKNCSVMGADLVVINTREEQDFIIQNLKRNSSYFLGLSDPGGRRHWQWVDQTPYNENVTFWHSGEPNNLDERCAIINFRSSEEWGWNDIHCHVPQKSICKMKKIYI” reads “not soluble”; that for “MAHHHHHHMTEGPLIVVGSVTLDQAARCYSPLSAPLRVRLEYAVLRPVVNPAWAATFEADIAYGRISVPLVQPTACSECMTPLNVPSSFLQHTPSDSIATLQPGELYQLDVHLETMELSKVEEKYVLQVGMLRLILLSGKTELADVNHVVQVKKNDDGELMRLIMNPLV”, “not soluble”; that for “MAANSTRRPIIAFMSDLGTTDDSVAQCKGLMYSICPDVTVVDVCHSMTPWDVEEGARYIVDLPRFFPEGTVFATTTYPATGTTTRSVAVRIKQAAKGGARGQWAGSGAGFERAEGSYIYIAPNNGLLTTVLEEHGYLEAYEVTSPKVIPEQPEPTFYAREMVAIPSAHLAAGFPLSEVGRPLEDHEIVRFNRPAVEQDGEALVGVVSAIDHPFGNVWTNIHRTDLEKAGIGYGARLRLTLDGVLPFEAPLTPTFADAGEIGNIAIYLNSRGYLSIARNAASLAYPYHLKEGMSARVEAR”, “soluble”.
